Data on two molecules can be found in article PMC8642297.

For assay [1], the target named is GluA2 (modified calcium-permeable rat GluA2flip subunit with Q586 at the Q/R-site, GluA2*) (rat). The assay can be described thus: cryo-EM structure.
Assay [2] has the same target. The assay can be described thus: cryo-EM structure. The source holds these as a separate data set.

By stoichiometry N is commonly meant the number of molecules, sites or subunits per partner or assembly. Turning to “GluA2 (modified calcium-permeable rat GluA2flip subunit with Q586 at the Q/R-site, GluA2*) (receptor)”, in assay [1], the stoichiometry N turned out to be 4.

B1: type II TARP γ5 (C-terminally truncated mouse subunit, Cacng5, residues Ser2-Glu207) (domain or fragment)
chain: SACGRKALTLLSSVFAVCGLGLLGIAVSTDYWLYLEEGIILPQNQSTEVKMSLHSGLWRVCFLAGEERGRCFTIEYVMPMNSQMTSESTVNVLKMIRSATPFPLVSLFFMFIGFILSNIGHIRPHRTILAFVSGIFFILSGLSLVVGLVLYISSINDEMLNRTKDAETYFNYKYGWSFAFAAISFLLTESAGVMSVYLFMKRYTAE
Consider B1, for which, in assay [2], the stoichiometry N (γ5 per GluA2 tetramer) turned out to be 2.
